These are literature values, as cited in publication PMC12071684.

What is called Kd is the constant that tells how readily two partners part at equilibrium.

The target of this series is von Willebrand factor (Homo sapiens) (UniProt P04275).

For the substance ADAMTS13 (from UniProt Q76LX8), the Kd is 20 nM.
